Laboratory results from article PMC9105436.

Target: coconut protein (coconut)
Experiment: ITC; Malvern MicroCal PEAQ-ITC; cell 200 uL with the low-concentration solution, syringe with the high-concentration solution (not told which held which); 13 injections of 3 uL; both solutions dialysed; fit with two sets of constants (N1/N2, K1, K2)

gelatin
K1: 4.33 µM
K2: 136 µM
N1: 2.69
N2: 1.51
dH1: -2.75 kcal/mol
dH2: -1.52 kcal/mol
